Laboratory results as given in patent US20260209325A1 (SCHOLAR ROCK, published 2026).

Experiments:
[1] = molecular target: recombinant human latent myostatin (human, UniProt O14793 24-375, biotinylated (in the Octet pH assay only)); assay: cell-based or functional assay
human pro-myostatin [2] = molecular target: T1, human pro-myostatin (human, UniProt O14793 24-375, biotinylated (in the SPR assay)); assay: SPR Biacore 8K, biotin-antigen captured
T1 construct: Disulfide-linked homodimer; also called proGDF8 (human)

cyno pro-myostatin = molecular target: T2, cyno pro-myostatin (cynomolgus monkey, Biotinylated for capture in the SPR assay (site not stated). The native form is a disulfide-linked homodimer, partly furin-cleaved; one chain is given.); assay: SPR Biacore 8K, biotin-antigen captured
T2 construct: also called proGDF8 (cynomolgus); cynomolgus monkey pro-myostatin

murine pro-myostatin = molecular target: T3, murine pro-myostatin (mouse, UniProt O08689 25-376, biotinylated (in the SPR assay)); assay: SPR Biacore 8K, biotin-antigen captured
T3 construct: also called proGDF8 (mouse); mouse pro-myostatin

human pro-myostatin [3] = molecular target: T1, human pro-myostatin; assay: cell-based or functional assay
human GDF-11 = human GDF-11 (human, UniProt O95390 299-407, limits assumed); assay: plate binding assay, OD 450 nm, one antibody concentration that is not given, on Hu-GDF-11 (method not described in the text)
mouse GDF-11 = mouse GDF-11 (mouse, UniProt Q9Z1W4 297-405, limits assumed); assay: plate binding assay, OD 450 nm, one antibody concentration that is not given, on Mu-GDF-11 (method not described in the text)
Sequence of mouse GDF-11 (Q9Z1W4 297-405 limits assumed): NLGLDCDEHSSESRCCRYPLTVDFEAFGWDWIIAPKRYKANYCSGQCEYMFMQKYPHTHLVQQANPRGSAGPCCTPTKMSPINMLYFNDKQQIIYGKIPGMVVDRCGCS

Sequence of human GDF-11 (O95390 299-407 limits assumed): as the sequence (Q9Z1W4 297-405 limits assumed) above

Binder	IC50 (nM) Latent + mTLL2 [1]	Kd (human pro-myostatin [2])	koff (human pro-myostatin [2])	kon (human pro-myostatin [2])	Kd (cyno pro-myostatin)	koff (cyno pro-myostatin)	kon (cyno pro-myostatin)	Kd (murine pro-myostatin)	koff (murine pro-myostatin)	kon (murine pro-myostatin)	IC50 (nM) Pro + Furin (human pro-myostatin [3])	binding result (human GDF-11)	binding result (mouse GDF-11)
Ab134 (antibody, human IgG4 S228P, kappa, V domains shown) VH: EVQLVESGGGLVQPGGSLRLSCAASGSAFSSYGMSWVRQAPGKGLELVASINSNGGSTYYPDSVKGRFTISRDNAKNSLYLQMNSLRAEDTAVYYCARDLLVEFLKWSHYYGMDVWGQGTTVTVSS VL: DIVMTQSPLSLPVTPGEPASISCRSSQSLLHSSGHNFLHWYLQKPGQSPQLLIYEVSNRVSGVPDRFSGSGSGTDFTLKISRVEAEDVGVYYCMQQTQYPPTFGGGTKVEIKR	0.631 nM	–	–	–	–	–	–	–	–	–	–	–	–
Ab108 (antibody, human IgG4 S228P, kappa, V domains shown) VH: EVQLVESGGGLVQPGGSLRLSCAASGSAFSSYGMSWVRQAPGKGLELVASINSNGGSTYYPDSVKGRFTISRDNAKNSLYLQMNSLRAEDTAVYYCARDLLVGFLQWSHYYGMDVWGQGTTVTVSS VL: DIVMTQSPLSLPVTPGEPASISCRSSQSLLHSSGHNFLHWYLQKPGQSPQLLIYEVSNRVSGVPDRFSGSGSGTDFTLKISRVEAEDVGVYYCMQQTQYPPTFGGGTKVEIKR	0.237 nM	177 pM	0.00105 s⁻¹	5.92e+06 M⁻¹ s⁻¹	159 pM	0.00102 s⁻¹	6.39e+06 M⁻¹ s⁻¹	218 pM	0.00183 s⁻¹	8.42e+06 M⁻¹ s⁻¹	0.27 nM	–	–
Ab107 (antibody, human IgG4 S228P, kappa, V domains shown) VH: EVQLVESGGGLVQPGGSLRLSCAASGSAFSSYGMSWVRQAPGKGLELVASINSNGGSTYYPDSVKGRFTISRDNAKNSLYLQMNSLRAEDTAVYYCARDQLVRFLEWSHYYGMDVWGQGTTVTVSS VL: DIVMTQSPLSLPVTPGEPASISCRSSQSLLHSSGHNFLHWYLQKPGQSPQLLIYAGSNRPSGVPDRFSGSGSGTDFTLKISRVEAEDVGVYYCAHATQLPHTFGGGTKVEIKR	0.135 nM	60 pM	0.000319 s⁻¹	5.34e+06 M⁻¹ s⁻¹	54 pM	0.000316 s⁻¹	5.85e+06 M⁻¹ s⁻¹	57 pM	0.000455 s⁻¹	8.04e+06 M⁻¹ s⁻¹	0.195 nM	–	–
Ab103 (antibody, human IgG4 S228P, kappa, V domains shown) VH: EVQLVESGGGLVQPGGSLRLSCAASGYTFSSYGMSWVRQAPGKGLELVASITGDAGRTYYPDSVKGRFTISRDNAKNSLYLQMNSLRAEDTAVYYCARDTLVRFLEWSHYYGMDVWGQGTTVTVSS VL: DIVMTQSPLSLPVTPGEPASISCRSSQSLLHSSGHNFLHWYLQKPGQSPQLLIYEVSNRVSGVPDRFSGSGSGTDFTLKISRVEAEDVGVYYCMQQTQYPPTFGGGTKVEIKR	0.506 nM	261 pM	0.00151 s⁻¹	5.78e+06 M⁻¹ s⁻¹	252 pM	0.00154 s⁻¹	6.09e+06 M⁻¹ s⁻¹	379 pM	0.00221 s⁻¹	5.83e+06 M⁻¹ s⁻¹	0.413 nM	–	–
Ab124 (antibody, human IgG4 S228P, kappa, V domains shown) VH: QVQLQESGPGLVKPSQTLSLTCTVSGGSISSSPYSWSWIRQPPGKGLEWIGYVDLAGSTDYNPSLKSRVTMSVDTSKNQFSLKVNSVTAADTAVYYCARALSSRSSEWLLDQYTMDVWGQGTTVTVSS VL: EIVMTQSPATLSLSPGERATLSCRASQSIGINLAWYQQKPGQAPRLLIYGVSNRATGIPARFSGSGSGTDFTLTISSLEPEDFAVYYCQQYGTARLTFGGGTKVEIKR	1.43 nM	–	–	–	–	–	–	3260 pM	0.000454 s⁻¹	139000 M⁻¹ s⁻¹	–	–	–
Ab115 (antibody, human IgG4 S228P, kappa, V domains shown) VH: QVQLVQSGAEVKKPGASVKVSCKVSGYAFTNYNIHWVRQAPGKGLEWMGGINPRTGGTIYAQKFQGRVTMTEDTSTDTAYMELSSLKSEDTAVYYCAKDIYTGVAVAGSGMDYWGQGTLVTVSS VL: DIQMTQSPSSVSASVGDRVTITCRASQGISTHLAWYQQKPGKAPKLLIYGASNLESGVPSRFSGSGSGTDFTLTISSLQPEDFANYYCQQANSFPWTFGGGTKVEIKR	2.94 nM	3040 pM	0.00123 s⁻¹	406000 M⁻¹ s⁻¹	3130 pM	0.00139 s⁻¹	443000 M⁻¹ s⁻¹	3050 pM	0.00137 s⁻¹	450000 M⁻¹ s⁻¹	6.01 nM	no binding	no binding
